The target of this data set is T1, drRecJ WT (Deinococcus radiodurans, UniProt D0EM60 1-705).
T1 sequence: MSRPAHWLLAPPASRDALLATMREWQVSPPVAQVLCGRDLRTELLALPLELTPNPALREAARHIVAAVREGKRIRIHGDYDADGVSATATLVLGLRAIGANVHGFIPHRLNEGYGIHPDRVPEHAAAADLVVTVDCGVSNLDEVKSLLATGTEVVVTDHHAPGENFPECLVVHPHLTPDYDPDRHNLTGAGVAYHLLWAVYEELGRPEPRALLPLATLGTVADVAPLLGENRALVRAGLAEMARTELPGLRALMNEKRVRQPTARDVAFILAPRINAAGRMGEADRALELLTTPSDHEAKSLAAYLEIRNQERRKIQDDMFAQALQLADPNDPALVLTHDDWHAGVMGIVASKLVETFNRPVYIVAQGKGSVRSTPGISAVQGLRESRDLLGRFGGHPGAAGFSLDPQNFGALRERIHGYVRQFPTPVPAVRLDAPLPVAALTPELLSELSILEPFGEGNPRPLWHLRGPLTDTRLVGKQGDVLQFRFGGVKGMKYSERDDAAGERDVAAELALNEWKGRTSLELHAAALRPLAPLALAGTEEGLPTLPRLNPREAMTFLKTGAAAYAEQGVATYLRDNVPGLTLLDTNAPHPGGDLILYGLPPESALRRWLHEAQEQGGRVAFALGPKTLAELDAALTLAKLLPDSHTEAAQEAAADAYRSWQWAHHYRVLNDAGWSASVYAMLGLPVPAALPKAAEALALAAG
Kind of data set: EMSA; no Mn2+ added; EMSA: 10 nM 3'-6-FAM ssDNA, 50 mM Tris-HCl pH 7.5, 150 mM KCl, 0.1 mg/ml BSA, 1 mM DTT, 5% glycerol, 20 min at 30 C; 8% native PAGE in TBE; Hill fit. As to conditions: protein: recombinant; label: 3'-6-FAM.

B1: KY08, (dA)20 (ssDNA)
DNA: AAAAAAAAAAAAAAAAAAAA
As to B1, the Kd (as a rule, the equilibrium constant for the complex coming apart) is 54.9 ± 5.18 nM.

B2: KY11, 5'-P-dSpacer-(dA)20 (ssDNA)
DNA: AAAAAAAAAAAAAAAAAAAA
modifications: 5'-P-dSpacer (tetrahydrofuran abasic, 5'-dRP mimic) added before A1
Consider B2, for which the Kd amounted to 28.4 ± 3.1 nM.

B3: KY10, 5'-P-(dA)20 (ssDNA)
DNA: AAAAAAAAAAAAAAAAAAAA
modifications: 5'-monophosphate
Take B3: the Kd was determined as 33.9 ± 2.83 nM.

Values taken from article PMC7515722, “Participation of RecJ in the base excision repair pathway of Deinococcus radiodurans”.
